Laboratory results from publication PMC10786891, “Massively parallel profiling of RNA-targeting CRISPR-Cas13d”.
Positions count from the first letter of the chain named. Names may count otherwise.

B1: target 1 insC 3' of 13,insG 3' of 2 (mixed)
RNA 1: CACCCGUGCAAAAAUGCAGGGGUCUAAAACUGAGCGGAUAACCUCUCUAUGG
RNA 2: GGGAAUGGAUCCACAUCUACGAAUUCGUACCAUAGAGAGCGUUAUCCGCUCGACCGAGAUCGGAAGAGCACACGU
B2: target 1 complement block 2-9 (mixed)
RNA 1: B1 RNA 1
RNA 2: GGGAAUGGAUCCACAUCUACGAAUUCGUACCAUAGAGAGGUUUAGGCGAGACCGAGAUCGGAAGAGCACACGU
B3: target 1 insC 3' of 22,insC 3' of 18 (mixed)
RNA 1: B1 RNA 1
RNA 2: GGGAAUGGAUCCACAUCUACGAAUUCGUACCCAUACGAGAGGUUAUCCGCUCACCGAGAUCGGAAGAGCACACGU
B4: target 1 insG 3' of 8,insG 3' of 8 (mixed)
RNA 1: B1 RNA 1
RNA 2: GGGAAUGGAUCCACAUCUACGAAUUCGUACCAUAGAGAGGUUAUGGCCGCUCACCGAGAUCGGAAGAGCACACGU
B5: target 1 C2U,A16C (mixed)
RNA 1: B1 RNA 1
RNA 2: B2 RNA 2 with A36C, U43A, A44U, G45C, G46C, C47G, G48C, A49U, G50U
B6: target 1 insA 3' of 21,insA 3' of 15 (mixed)
RNA 1: B1 RNA 1
RNA 2: B3 RNA 2 with C32A, C36G, G37A, A38G, G39A
B7: target 1 insU 3' of 15,insG 3' of 4 (mixed)
RNA 1: B1 RNA 1
RNA 2: B1 RNA 2 with A38U, G39A, C40G, U50G, C51U, G52C
B8: target 1 C7A,C21U (mixed)
RNA 1: B1 RNA 1
RNA 2: B2 RNA 2 with C31U, U43A, A44U, G45A, G46C, C47G, G48C, A49U, G50C
B9: target 1 insU 3' of 20,insG 3' of 7 (mixed)
RNA 1: B1 RNA 1
RNA 2: GGGAAUGGAUCCACAUCUACGAAUUCGUACCAUUAGAGAGGUUAUCGCGCUCACCGAGAUCGGAAGAGCACACGU
B10: target 1 insC 3' of 16,insC 3' of 13 (mixed)
RNA 1: B1 RNA 1
RNA 2: B4 RNA 2 with G37C, A38G, G39A, U41C, U42G, A43U, G45A, G46U
B11: target 1 insU 3' of 15,insG 3' of 9 (mixed)
RNA 1: B1 RNA 1
RNA 2: B4 RNA 2 with A38U, G39A, U41G, A43U, U44A, G46U
B12: target 1 insG 3' of 22,insA 3' of 19 (mixed)
RNA 1: B1 RNA 1
RNA 2: B3 RNA 2 with C31G, C36A
B13: target 1 C2U,C22A (mixed)
RNA 1: B1 RNA 1
RNA 2: B2 RNA 2 with C30A, U43A, A44U, G45C, G46C, C47G, G48C, A49U, G50U
B14: target 1 insC 3' of 16,insG 3' of 3 (mixed)
RNA 1: B1 RNA 1
RNA 2: B1 RNA 2 with G37C, A38G, G39A, C40G, C51G, G52C
B15: target 1 insG 3' of 9,insG 3' of 2 (mixed)
RNA 1: B1 RNA 1
RNA 2: B1 RNA 2 with C40G, G41U, U43A, A44G
B16: target 1 C6G,A20U (mixed)
RNA 1: B1 RNA 1
RNA 2: B2 RNA 2 with A32U, U43A, A44U, G45C, C47G, G48C, A49U, G50C
B17: target 1 C6A,A14U (mixed)
RNA 1: B1 RNA 1
RNA 2: B2 RNA 2 with A38U, U43A, A44U, G45C, G46A, C47G, G48C, A49U, G50C
B18: target 1 insG 3' of 7,insA 3' of 6 (mixed)
RNA 1: B1 RNA 1
RNA 2: B4 RNA 2 with G45C, C48A
B19: target 1 insU 3' of 21,insG 3' of 21 (mixed)
RNA 1: B1 RNA 1
RNA 2: B3 RNA 2 with C32U, A33G, U34A, A35U, C36A
B20: target 1 insA 3' of 8,insU 3' of 5 (mixed)
RNA 1: B1 RNA 1
RNA 2: B4 RNA 2 with G45A, G46C, C48G, G49U
B21: target 1 insA 3' of 12,insC 3' of 9 (mixed)
RNA 1: B1 RNA 1
RNA 2: B4 RNA 2 with U41A, A43U, U44A, G45C, G46U
B22: target 1 C2U,U19G (mixed)
RNA 1: B1 RNA 1
RNA 2: B2 RNA 2 with U33G, U43A, A44U, G45C, G46C, C47G, G48C, A49U, G50U
B23: target 1 C7G,U19A (mixed)
RNA 1: B1 RNA 1
RNA 2: B2 RNA 2 with U33A, U43A, A44U, G46C, C47G, G48C, A49U, G50C
B24: target 1 C6A,U19C (mixed)
RNA 1: B1 RNA 1
RNA 2: B2 RNA 2 with U33C, U43A, A44U, G45C, G46A, C47G, G48C, A49U, G50C
B25: target 1 A1U,G5U (mixed)
RNA 1: B1 RNA 1
RNA 2: B2 RNA 2 with U43A, A44U, G45C, G46C, C47U, G48C, A49U, G50C, A51U
B26: target 1 insU 3' of 14,insG 3' of 3 (mixed)
RNA 1: B1 RNA 1
RNA 2: B1 RNA 2 with G39U, C40G, C51G, G52C
B27: target 1 insG 3' of 19,insA 3' of 19 (mixed)
RNA 1: B1 RNA 1
RNA 2: B3 RNA 2 with C32A, A33U, U34G, C36A
B28: target 1 C2A,U8C (mixed)
RNA 1: B1 RNA 1
RNA 2: B2 RNA 2 with U43A, A44C, G45C, G46C, C47G, G48C, A49U, G50A
B29: target 1 insC 3' of 20,insU 3' of 14 (mixed)
RNA 1: B1 RNA 1
RNA 2: B9 RNA 2 with U33C, G40U, U42G, A44U, U45A, C46U, G47C

Molecular target: T1, EsCas13d, nuclease-dead (Eubacterium siraeum, UniProt B0MS50, R295A;H300A;R849A;H854A)
T1 sequence: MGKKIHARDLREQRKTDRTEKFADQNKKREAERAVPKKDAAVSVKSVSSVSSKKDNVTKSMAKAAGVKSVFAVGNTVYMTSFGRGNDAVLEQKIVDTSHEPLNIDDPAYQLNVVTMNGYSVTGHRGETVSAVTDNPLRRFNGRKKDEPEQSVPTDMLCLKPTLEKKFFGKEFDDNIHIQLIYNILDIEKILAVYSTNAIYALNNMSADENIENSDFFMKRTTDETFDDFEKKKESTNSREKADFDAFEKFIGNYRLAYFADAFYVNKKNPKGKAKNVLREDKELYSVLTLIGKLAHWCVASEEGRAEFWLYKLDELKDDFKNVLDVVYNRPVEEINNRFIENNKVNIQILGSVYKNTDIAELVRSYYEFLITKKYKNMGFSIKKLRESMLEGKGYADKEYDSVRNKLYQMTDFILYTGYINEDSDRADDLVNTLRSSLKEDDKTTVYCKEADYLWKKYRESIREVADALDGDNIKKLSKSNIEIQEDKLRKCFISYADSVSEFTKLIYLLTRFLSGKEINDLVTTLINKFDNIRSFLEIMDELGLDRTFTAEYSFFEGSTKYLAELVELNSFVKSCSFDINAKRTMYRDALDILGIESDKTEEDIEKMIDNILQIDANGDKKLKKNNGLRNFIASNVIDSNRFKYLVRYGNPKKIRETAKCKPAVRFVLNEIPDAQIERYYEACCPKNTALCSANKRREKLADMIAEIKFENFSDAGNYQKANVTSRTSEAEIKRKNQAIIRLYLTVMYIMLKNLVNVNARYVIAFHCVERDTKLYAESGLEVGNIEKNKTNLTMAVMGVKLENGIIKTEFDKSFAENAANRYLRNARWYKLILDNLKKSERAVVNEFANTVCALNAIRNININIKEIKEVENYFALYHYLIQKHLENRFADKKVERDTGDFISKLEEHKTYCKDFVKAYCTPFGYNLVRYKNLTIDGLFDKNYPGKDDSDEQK
Assay: crRNA (strand 1, pre-loaded); Mg2+; 40 mM Tris-HCl pH 7.5, 150 mM NaCl, 6 mM MgCl2, 1 mM DTT, 0.1% Tween-20, 0.2 mg/ml BSA; 25 C; 10 min per concentration, then washed
Conditions: tags: His6-TwinStrep-SUMO cleaved; N-terminal SNAP kept (SNAP-Surface 488); label: 3' end held by stalled T7 RNA polymerase

Row | Binder | Kd [nM]
1 | B1 | 11.4 ± 0.5
2 | B2 | 7.29 ± 0.23
3 | B3 | 41 ± 16
4 | B4 | 45.3 ± 3.2
5 | B5 | 56 ± 4
6 | B6 | 9.4 ± 0.6
7 | B7 | 13.5 ± 1.3
8 | B8 | 6.56 ± 0.31
9 | B9 | 11.8 ± 0.6
10 | B10 | 83 ± 27
11 | B11 | 13 ± 0.6
12 | B12 | 63 ± 10
13 | B13 | 16.2 ± 1.2
14 | B14 | 50 ± 8
15 | B15 | 17.2 ± 1
16 | B16 | 40.5 ± 2.5
17 | B17 | 54 ± 9
18 | B18 | 9 ± 0.6
19 | B19 | 54 ± 6
20 | B20 | 22 ± 1.8
21 | B21 | 40 ± 5
22 | B22 | 52 ± 4
23 | B23 | 56 ± 9
24 | B24 | 21.3 ± 1.9
25 | B25 | 73 ± 11
26 | B26 | 34 ± 4
27 | B27 | 50 ± 7
28 | B28 | 5.2 ± 0.4
29 | B29 | 5.5 ± 0.8
